What was measured:
[1] = target: PD-1 on Jurkat/PD-1细胞(Promega) (UniProt Q15116 25-288, limits assumed); test: cell-based or functional assay
[2] = target: T1, 人PD-1蛋白(北京百普赛斯，货号PD1-H5221) (human, UniProt Q15116 25-167); test: binding ELISA on coated PD-1 protein
T1 construct: Bought recombinant protein coated on the ELISA plate; also called PD-1抗原

| Binder | EC50, PD-1报告基因法 [1] [µg/mL] | binding result [2] | EC50 [2] [µg/mL] |
| --- | --- | --- | --- |
| 抗PD-1/TGF-β-1 (bispecific antibody, human IgG4 S228P, kappa, also called antiPD-1/TGF-β-1) heavy: not shown light: ETVLTQSPGTLSLSPGERATLSCRASQSLGSSYLAWYQQKPGQAPRLLIYGASSRAPGIPDRFSGSGSGTDFTLTISRLEPEDFAVYYCQQYADSPITFGQGTRLEIKRTVAAPSVFIFPPSDEQLKSGTASVVCLLNNFYPREAKVQWKVDNALQSGNSQESVTEQDSKDSTYSLSSTLTLSKADYEKHKVYACEVTHQGLSSPVTKSFNRGEC | 1.7 | – | 0.17 |
| 抗PD-1/TGF-β-3 (bispecific antibody, human IgG4 S228P, kappa, also called antiPD-1/TGF-β-3) heavy: not shown light: ETVLTQSPGTLSLSPGERATLSCRASQSLGSSYLAWYQQKPGQAPRLLIYGASSRAPGIPDRFSGSGSGTDFTLTISRLEPEDFAVYYCQQYADSPITFGQGTRLEIKRTVAAPSVFIFPPSDEQLKSGTASVVCLLNNFYPREAKVQWKVDNALQSGNSQESVTEQDSKDSTYSLSSTLTLSKADYEKHKVYACEVTHQGLSSPVTKSFNRGEC | – | binds | – |
| 抗PD-1/TGF-β-2 (bispecific antibody, human IgG4 S228P, kappa, also called antiPD-1/TGF-β-2) heavy: not shown light: ETVLTQSPGTLSLSPGERATLSCRASQSLGSSYLAWYQQKPGQAPRLLIYGASSRAPGIPDRFSGSGSGTDFTLTISRLEPEDFAVYYCQQYADSPITFGQGTRLEIKRTVAAPSVFIFPPSDEQLKSGTASVVCLLNNFYPREAKVQWKVDNALQSGNSQESVTEQDSKDSTYSLSSTLTLSKADYEKHKVYACEVTHQGLSSPVTKSFNRGEC | – | binds | – |

Now from value to binder:

| EC50, PD-1报告基因法 [1] [µg/mL] | binding result [2] | EC50 [2] [µg/mL] | Binder |
| --- | --- | --- | --- |
| 1.3 | – | – | 抗PD-1/IL-8-2 (bispecific antibody, human IgG4 S228P, kappa) heavy: not shown light: EIVLTQSPGTLSLSPGERATLSCRASQSISSSYLAWYQQKPGQAPRLLIYGPSSRATGIPDRFSGSGSGTDFTLTISRLEPEDFAVYYCQQYAGSLTFGPGTKVDIKRTVAAPSVFIFPPSDEQLKSGTASVVCLLNNFYPREAKVQWKVDNALQSGNSQESVTEQDSKDSTYSLSSTLTLSKADYEKHKVYACEVTHQGLSSPVTKSFNRGEC |
| – | binds | – | 抗PD-1/IL-8-1 (bispecific antibody, human IgG4 S228P, kappa, also called antiPD-1/IL-8-1) heavy: not shown light: EIVLTQSPGTLSLSPGERATLSCRASQSISSSYLAWYQQKPGQAPRLLIYGPSSRATGIPDRFSGSGSGTDFTLTISRLEPEDFAVYYCQQYAGSLTFGPGTKVDIKRTVAAPSVFIFPPSDEQLKSGTASVVCLLNNFYPREAKVQWKVDNALQSGNSQESVTEQDSKDSTYSLSSTLTLSKADYEKHKVYACEVTHQGLSSPVTKSFNRGEC |
| 4 | – | 0.0641 | 抗PD-1/PSCK9-2 (bispecific antibody, human IgG4 S228P, kappa, also called antiPD-1/PSCK9-2; 抗PD-1/PCSK9-2) heavy: not shown light: ESALTQPASVSGSPGQSITISCTGTSSDVGGYNSVSWYQQHPGKAPKLMIYEVSNRPSGVSNRFSGSKSGNTASLTISGLQAEDEADYYCNSYTSTSMVFGGGTKLTVLRTVAAPSVFIFPPSDEQLKSGTASVVCLLNNFYPREAKVQWKVDNALQSGNSQESVTEQDSKDSTYSLSSTLTLSKADYEKHKVYACEVTHQGLSSPVTKSFNRGEC |

Source: patent CN115558029A (LILING BIOLOGICAL PHARMACEUTICAL SUZHOU CO LTD, dated 2023)
